The values below come from patent US20110052582A1 (Hoffmann-La Roche, published 2011).

The labels stand for the following.
T1: Soluble CDCP1 extracellular domain (CDCP1-ECD) (SEQ ID NO:30) fused to Streptavidin Binding Protein (SBP) (human, UniProt Q9H5V8 30-663)
T1 construct: also called SBP-CDCP1-ECD
T1 sequence: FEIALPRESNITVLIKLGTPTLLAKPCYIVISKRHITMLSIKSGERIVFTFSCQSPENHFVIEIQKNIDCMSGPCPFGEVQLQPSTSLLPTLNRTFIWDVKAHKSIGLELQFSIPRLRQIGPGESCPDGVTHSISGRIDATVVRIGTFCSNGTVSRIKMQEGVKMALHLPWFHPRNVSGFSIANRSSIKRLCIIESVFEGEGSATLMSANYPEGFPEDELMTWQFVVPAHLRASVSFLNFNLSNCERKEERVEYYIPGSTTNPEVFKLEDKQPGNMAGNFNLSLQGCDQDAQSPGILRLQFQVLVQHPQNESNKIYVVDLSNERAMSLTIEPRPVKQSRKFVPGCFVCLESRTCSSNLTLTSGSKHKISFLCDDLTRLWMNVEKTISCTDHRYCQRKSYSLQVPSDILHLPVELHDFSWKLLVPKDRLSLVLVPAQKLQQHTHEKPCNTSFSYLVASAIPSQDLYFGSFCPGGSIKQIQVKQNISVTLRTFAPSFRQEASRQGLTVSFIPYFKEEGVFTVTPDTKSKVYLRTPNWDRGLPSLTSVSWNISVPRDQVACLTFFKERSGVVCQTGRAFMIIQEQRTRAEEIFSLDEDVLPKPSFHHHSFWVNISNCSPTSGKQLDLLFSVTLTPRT

B1: hHC4-a / hLC4-c (antibody, V domains shown)
VH: EVQLVESGGGLVKPGGSLRLSCAASGFTFNSYGMSWVRQAPGKGLEWVSTISSGGSYTYYPDSVKGRFTISRDNAKNSLYLQMNSLRAEDTAVYYCARHPDYDGVWFAYWGQGTLVTVSS
VL: EIVMTQSPATLSVSPGERATLSCSVSSSVFYVHWYQQKPGQAPRLLIYDTSKLASGIPARFSGSGSGTEFTLTISSLQSEDFAVYYCQQWNSNPPTFGGGTKVEIK
B2: hHC4-b / hLC4-b (antibody, V domains shown)
VH: EVQLVESGGGLVKPGGSLRLSCAASGFTFNSYSMNWVRQAPGKGLEWVSSISSGGSYIYYADSVKGRFTISRDNAKNSLYLQMNSLRAEDTAVYYCARHPDYDGVWFAYWGQGTLVTVSS
VL: EIVLTQSPATLSLSPGERATLSCSVSSSVFYVHWYQQKPGQAPRLLIYDTSKLASGIPARFSGSGSGTDYTLTISSLEPEDFAVYYCQQWNSNPPTFGGGTKVEIK
B3: hHC4-b / hLC4-L2 (antibody, V domains shown)
VH: EVQLVESGGGLVKPGGSLRLSCAASGFTFNSYSMNWVRQAPGKGLEWVSSISSGGSYIYYADSVKGRFTISRDNAKNSLYLQMNSLRAEDTAVYYCARHPDYDGVWFAYWGQGTLVTVSS
VL: EIVLTQSPATLSLSPGERATMSCSVSSSVFYLHWYQQKPGQAPRLWIYDTSKLASGIPARFSGSGSGTDFTLTISSLEPEDFAVYYCQQWNSNPPTFGGGTKVEIK
B4: hHC4-b / hLC4-a (antibody, V domains shown)
VH: EVQLVESGGGLVKPGGSLRLSCAASGFTFNSYSMNWVRQAPGKGLEWVSSISSGGSYIYYADSVKGRFTISRDNAKNSLYLQMNSLRAEDTAVYYCARHPDYDGVWFAYWGQGTLVTVSS
VL: EIVLTQSPATLSLSPGERATLSCSVSSSVFYVHWYQQKPGQAPRLLIYDTSKLASGIPARFSGSGSGTDFTLTISSLEPEDFAVYYCQQWNSNPPTFGGGTKVEIK
B5: hHC4-b / hLC4-L (antibody, V domains shown)
VH: EVQLVESGGGLVKPGGSLRLSCAASGFTFNSYSMNWVRQAPGKGLEWVSSISSGGSYIYYADSVKGRFTISRDNAKNSLYLQMNSLRAEDTAVYYCARHPDYDGVWFAYWGQGTLVTVSS
VL: EIVLTQSPATLSLSPGERATMSCRASSSVFYLHWYQQKPGQAPRLWIYDTSKLASGIPARFSGSGSGTDFTLTISSLEPEDFAVYYCQQWNSNPPTFGGGTKVEIK
B6: hHC4-c / hLC4-M (antibody, V domains shown)
VH: EVQLVESGGGLVQPGGSLRLSCAASGFTFNSYGMSWVRQAPGKGLEWVATISSGGSYTYYPDSVKGRFTISRDNAKNSLYLQMNSLRAEDTAVYYCARHPDYDGVWFAYWGQGTLVTVSS
VL: EIVLTQSPATLSLSPGERATMSCGASSSVFYLHWYQQKPGLAPRLWIYDTSKLASGIPDRFSGSGSGTDFTLTISRLEPEDFAVYYCQQWNSNPPTFGGGTKVEIK
B7: hHC4-c / hLC4-J (antibody, V domains shown)
VH: EVQLVESGGGLVQPGGSLRLSCAASGFTFNSYGMSWVRQAPGKGLEWVATISSGGSYTYYPDSVKGRFTISRDNAKNSLYLQMNSLRAEDTAVYYCARHPDYDGVWFAYWGQGTLVTVSS
VL: EIVMTQSPATLSLSPGERATMSCRASSSVFYLHWYQQKPGQAPRLWIYDTSKLASGIPARFSGSGSGTDFTLTISSLQPEDFAVYYCQQWNSNPPTFGGGTKVEIK
B8: hHC4-c / hLC4-L2 (antibody, V domains shown)
VH: EVQLVESGGGLVQPGGSLRLSCAASGFTFNSYGMSWVRQAPGKGLEWVATISSGGSYTYYPDSVKGRFTISRDNAKNSLYLQMNSLRAEDTAVYYCARHPDYDGVWFAYWGQGTLVTVSS
VL: EIVLTQSPATLSLSPGERATMSCSVSSSVFYLHWYQQKPGQAPRLWIYDTSKLASGIPARFSGSGSGTDFTLTISSLEPEDFAVYYCQQWNSNPPTFGGGTKVEIK
B9: hHC4-c / hLC4-K (antibody, V domains shown)
VH: EVQLVESGGGLVQPGGSLRLSCAASGFTFNSYGMSWVRQAPGKGLEWVATISSGGSYTYYPDSVKGRFTISRDNAKNSLYLQMNSLRAEDTAVYYCARHPDYDGVWFAYWGQGTLVTVSS
VL: EIVLTQSPATLSLSPGERATLSCRASSSVFYLHWYQQKPGQAPRLWIYDTSKLASGIPARFSGSGSGTDFTLTISSLEPEDFAVYYCQQWNSNPPTFGGGTKVEIK
B10: hHC4-b / hLC4-K (antibody, V domains shown)
VH: EVQLVESGGGLVKPGGSLRLSCAASGFTFNSYSMNWVRQAPGKGLEWVSSISSGGSYIYYADSVKGRFTISRDNAKNSLYLQMNSLRAEDTAVYYCARHPDYDGVWFAYWGQGTLVTVSS
VL: EIVLTQSPATLSLSPGERATLSCRASSSVFYLHWYQQKPGQAPRLWIYDTSKLASGIPARFSGSGSGTDFTLTISSLEPEDFAVYYCQQWNSNPPTFGGGTKVEIK
B11: hHC4-b / hLC4-I (antibody, V domains shown)
VH: EVQLVESGGGLVKPGGSLRLSCAASGFTFNSYSMNWVRQAPGKGLEWVSSISSGGSYIYYADSVKGRFTISRDNAKNSLYLQMNSLRAEDTAVYYCARHPDYDGVWFAYWGQGTLVTVSS
VL: EIVMTQSPATLSLSPGERATLSCRASSSVFYLSWYQQKPGQAPRLWIYDTSKLASGIPARFSGSGSGTDFTLTISSLQPEDFAVYYCQQWNSNPPTFGGGTKVEIK
B12: hHC4-b / hLC4-J (antibody, V domains shown)
VH: EVQLVESGGGLVKPGGSLRLSCAASGFTFNSYSMNWVRQAPGKGLEWVSSISSGGSYIYYADSVKGRFTISRDNAKNSLYLQMNSLRAEDTAVYYCARHPDYDGVWFAYWGQGTLVTVSS
VL: EIVMTQSPATLSLSPGERATMSCRASSSVFYLHWYQQKPGQAPRLWIYDTSKLASGIPARFSGSGSGTDFTLTISSLQPEDFAVYYCQQWNSNPPTFGGGTKVEIK
B13: hHC4-b / hLC4-M (antibody, V domains shown)
VH: EVQLVESGGGLVKPGGSLRLSCAASGFTFNSYSMNWVRQAPGKGLEWVSSISSGGSYIYYADSVKGRFTISRDNAKNSLYLQMNSLRAEDTAVYYCARHPDYDGVWFAYWGQGTLVTVSS
VL: EIVLTQSPATLSLSPGERATMSCGASSSVFYLHWYQQKPGLAPRLWIYDTSKLASGIPDRFSGSGSGTDFTLTISRLEPEDFAVYYCQQWNSNPPTFGGGTKVEIK
B14: hHC4-a / hLC4-d (antibody, V domains shown)
VH: EVQLVESGGGLVKPGGSLRLSCAASGFTFNSYGMSWVRQAPGKGLEWVSTISSGGSYTYYPDSVKGRFTISRDNAKNSLYLQMNSLRAEDTAVYYCARHPDYDGVWFAYWGQGTLVTVSS
VL: EIVMTQSPATLSVSPGERATLSCSVSSSVFYVHWYQQKPGQAPRLLIYDTSKLASGIPARFSGSGSGTEYTLTISSLQSEDFAVYYCQQWNSNPPTFGGGTKVEIK
B15: hHC4-c / hLC4-I (antibody, V domains shown)
VH: EVQLVESGGGLVQPGGSLRLSCAASGFTFNSYGMSWVRQAPGKGLEWVATISSGGSYTYYPDSVKGRFTISRDNAKNSLYLQMNSLRAEDTAVYYCARHPDYDGVWFAYWGQGTLVTVSS
VL: EIVMTQSPATLSLSPGERATLSCRASSSVFYLSWYQQKPGQAPRLWIYDTSKLASGIPARFSGSGSGTDFTLTISSLQPEDFAVYYCQQWNSNPPTFGGGTKVEIK
B16: hHC4-c / hLC4-L (antibody, V domains shown)
VH: EVQLVESGGGLVQPGGSLRLSCAASGFTFNSYGMSWVRQAPGKGLEWVATISSGGSYTYYPDSVKGRFTISRDNAKNSLYLQMNSLRAEDTAVYYCARHPDYDGVWFAYWGQGTLVTVSS
VL: EIVLTQSPATLSLSPGERATMSCRASSSVFYLHWYQQKPGQAPRLWIYDTSKLASGIPARFSGSGSGTDFTLTISSLEPEDFAVYYCQQWNSNPPTFGGGTKVEIK

This experiment has as its target T1, Soluble CDCP1 extracellular domain …. Nature of the experiment: ELISA on captured SBP-CDCP1-ECD, ratio relative to chimeric CUB4 (chHC4). The protocol: Soluble CDCP1 extracellular domain (CDCP1-ECD) (SEQ ID NO:30) fused to Streptavidin Binding Protein (SBP) was captured on a sreptavidine plate. To define optimal binding of the antibody to SBP-CDCP1-ECD, 384-well polystyrene plates (NUNC, streptavidin-coated) delivered by MicroCoat, Bernried, Germany (ID-No. 1734776-001) have been coated with pure and stepwise diluted HEK293 supernatant (in BSA/IMDM buffer: 100 mg/ml BSA Fraction V, Roche 10735078001, dissolved in Iscove's Modified Dulbeccos Medium). Using a calibration curve of mouse CUB4 antibodies the optimal dilution factor of the HEK293 supernatant in relation to the streptavidin binding capacity of the microtiter plate was identified. For the standard coating, SBP-CDCP1-ECD containing HEK293 supernatant was diluted (between 1:15 and 1:40) and incubated overnight at 2-8° C. (25 μl per well). Intensive washing of the microtiter plate is necessary to remove remaining unbound SBP-CDCP1-ECD.
Humanized CUB4 antibodies and/or reference antibody (chimeric (chHC4) CUB4 antibody comprising human constant region and mouse VH and VL of SEQ ID NO:1 and 2) were tested either undiluted or using a 12-step-dilution. 12.5 μl per well of each sample was incubated for 90 min at room temperature. After intensive washing using PBS-T (0.1% Tween 20 in PBS) 25 μl of either goat anti-human IgG antibodies coupled with HRP (Jackson ImmunoResearch, Code No: 109-036-098, dilution 1:10000) for human antibodies were added and incubated for 1 hour. After intensive washing the binding of the antibodies was detected with ABTS tablets (Roche Diagnostics GmbH, Cat. No.: 1112422). Absorbance at 405 nm/492 nm was measured using a standard photometer.
Background: An ELISA detects its analyte on a solid surface through an enzyme-linked reagent.
B1: the relative binding ratio is 0.35.

Take B2: the binding result is on record as “no binding”.

As for B3, the binding result is “no binding”.

Turning to B4, the binding result was “no binding”.

For the molecule B5, the binding result was “no binding”.

For B6, the relative binding ratio was 0.71.

Turning to B7, the relative binding ratio was 0.42.

Consider B8, for which the relative binding ratio came to 0.53.

With B9, the relative binding ratio was 0.83.

For B10, the binding result was “no binding”.

In the case of B11, the binding result is recorded as “no binding”.

Take B12: the binding result is given as “no binding”.

B13: the binding result was “no binding”.

For B14, the relative binding ratio turned out to be 0.28.

As for B15, the binding result is “no binding”.

For B16, the relative binding ratio worked out at 0.45.
